According to doi:10.1101/2025.02.05.636571:

System: P41676
Test: SEC

PK2 C181S/C211S (full-length PK2 from the baculovirus AcMNPV, stable mutant, C-terminal His-tag)
percent in the monomer peak: monomer (62%)
